Target: purified poly(ADP-ribose) polymerase (PARP)

B1: purified recombinant human ICE (protein)
chain 1: NPAMPTSSGSEGNVKLCSLEEAQRIWKQKSAEIYPIMDKSSRTRLALIICNEEFDSIPRRTGAEVDITGMTMLLQNLGYSVDVKKNLTASDMTTELEAFAHRPEHKTSDSTFLVFMSHGIREGICGKKHSEQVPDILQLNAIFNMLNTKNCPSLKDKPKVIIIQACRGDSPGVVWFKD
chain 2: AIKKAHIEKDFIAFCSSTPDNVSWRHPTMGSVFIGRLIEHMQEYACSCDVEEIFRKVRFSFEQPDGRAQMPTTERVTLTRCFYLFPGH
  proteolytic cleavage of purified PARP, anti-PARP immunoblot: Purified ICE did not cleave PARP

— patent publication US7097972
